Assay results taken from paper PMC2171497.

Target: 2′,3′-cyclic nucleotide 3′-phosphodiesterase (CNP), endogenous, rat (rat (endogenous in cultured rat OLs and rat brain)) (UniProt P13233)
Test: co-IP

Sequence of UniProt P13233 (P13233 whole entry): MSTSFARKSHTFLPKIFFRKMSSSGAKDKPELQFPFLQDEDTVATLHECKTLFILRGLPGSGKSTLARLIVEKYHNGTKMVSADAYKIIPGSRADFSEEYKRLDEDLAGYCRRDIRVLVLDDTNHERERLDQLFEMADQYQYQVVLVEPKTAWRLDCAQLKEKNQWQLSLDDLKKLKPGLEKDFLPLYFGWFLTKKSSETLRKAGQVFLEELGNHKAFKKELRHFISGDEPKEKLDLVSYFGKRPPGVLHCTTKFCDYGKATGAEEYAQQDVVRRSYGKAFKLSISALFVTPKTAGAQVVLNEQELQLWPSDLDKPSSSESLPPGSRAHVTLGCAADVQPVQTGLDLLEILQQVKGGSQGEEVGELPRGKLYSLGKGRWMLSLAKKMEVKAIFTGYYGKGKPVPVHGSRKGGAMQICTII

With “tubulin (α- and β-tubulin), endogenous, rat (from UniProt P68370 1-451; Q3KRE8 1-445) (complex)” the stoichiometry N was 1.
